According to patent US20230382974A1 (HANMI PHARM, published 2023):
Bridges are numbered along the chain shown (N, C = ends). Where no end group is shown, it is not given here. [ ]: non-standard residue; d: D form. Aib = CC(C)(N)C(=O)O

B1: triple agonist peptide of SEQ ID NO: 10 (peptide)
peptide: Y[Aib]QGTFTSDYSKYLDERASKDFVQWLLDHHPSSGQPPPSC-NH2
modifications: bridge 16-20
B2: triple agonist peptide of SEQ ID NO: 8 (peptide)
peptide: Y[Aib]QGTFTSDCSKYLDEKAAKEFVQWLLDHHPSSGQPPPS-NH2
modifications: bridge 16-20
B3: triple agonist peptide of SEQ ID NO: 9 (peptide)
peptide: Y[Aib]EGTFTSDYSEYMEKEAVREFICWLVKGGPSSGAPPPS-NH2
modifications: bridge (positions not given here); not fully specified; also: ring formation between underlined and bold residues, places not given here
B4: triple agonist peptide of SEQ ID NO: 11 (peptide)
peptide: Y[Aib]QGTFTSDYSIYLDEKAAKEFVQWLLDQHPSSGQPPPSC-NH2
modifications: bridge 16-20
B5: triple agonist peptide of SEQ ID NO: 3 (peptide)
peptide: Y[Aib]QGTFTSDYSKYLDEQRAKEFIAWLLDHHPSSGQPPPSC-NH2
modifications: bridge 16-20
B6: triple agonist peptide of SEQ ID NO: 1 (peptide)
peptide: Y[Aib]QGTFTSDYSKYLDEQRAKEFVQWLLDHHPSSGQPPPSC-NH2
modifications: bridge 16-20
B7: triple agonist peptide of SEQ ID NO: 2 (peptide)
peptide: Y[Aib]QGTFTSDYSKYLDEQAAKEFVQWLLDHHPSSGQPPPSC-NH2
modifications: bridge 16-20
B8: triple agonist peptide of SEQ ID NO: 7 (peptide)
peptide: Y[Aib]QGTFTSDYSKALDEKAAKDFVQWLKDQHPSSGQPPPSC-NH2
modifications: bridge 16-20
B9: triple agonist peptide of SEQ ID NO: 6 (peptide)
peptide: Y[Aib]QGTFTSDYSKALDEKAAKDFVQWLLDQHPSSGQPPPSC-NH2
modifications: bridge 16-20
B10: triple agonist peptide of SEQ ID NO: 12 (peptide)
peptide: Y[Aib]EGTFTSDYSIQLDKQAA[Aib]AFVQWLIAGGPSSGAPPPSK-NH2
B11: triple agonist peptide of SEQ ID NO: 5 (peptide)
peptide: Y[Aib]QGTFTSDYSKYLDEKRAKEFVQWLLDQHPSSGQPPPSC-NH2
modifications: bridge 16-20
B12: triple agonist peptide of SEQ ID NO: 4 (peptide)
peptide: Y[Aib]QGTFTSDYSIYLDEQRAKEFIAWLLAHHPSSGQPPPSC-NH2
modifications: bridge 16-20

Key:
Assay in all cases: cell-based or functional assay
human glucagon receptor = human glucagon receptor (human, UniProt P47871 26-477)
human GLP-1 receptor = human GLP-1 receptor (human, UniProt P43220 24-463)
human GIP receptor = molecular target: T1, human GIP receptor (human, UniProt P48546 22-466)
T1 sequence (looked up): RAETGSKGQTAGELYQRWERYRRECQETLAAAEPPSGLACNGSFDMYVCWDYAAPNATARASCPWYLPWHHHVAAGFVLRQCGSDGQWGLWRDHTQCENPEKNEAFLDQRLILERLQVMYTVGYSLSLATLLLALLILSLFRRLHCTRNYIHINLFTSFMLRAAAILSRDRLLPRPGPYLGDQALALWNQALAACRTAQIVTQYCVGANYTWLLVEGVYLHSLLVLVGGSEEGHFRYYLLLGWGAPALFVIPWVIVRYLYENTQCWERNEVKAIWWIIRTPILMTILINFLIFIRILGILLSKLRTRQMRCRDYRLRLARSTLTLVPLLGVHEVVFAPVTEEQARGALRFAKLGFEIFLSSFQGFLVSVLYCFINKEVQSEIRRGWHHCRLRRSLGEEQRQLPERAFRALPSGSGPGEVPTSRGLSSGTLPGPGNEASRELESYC

human glucagon receptor, sequence (P47871 26-477): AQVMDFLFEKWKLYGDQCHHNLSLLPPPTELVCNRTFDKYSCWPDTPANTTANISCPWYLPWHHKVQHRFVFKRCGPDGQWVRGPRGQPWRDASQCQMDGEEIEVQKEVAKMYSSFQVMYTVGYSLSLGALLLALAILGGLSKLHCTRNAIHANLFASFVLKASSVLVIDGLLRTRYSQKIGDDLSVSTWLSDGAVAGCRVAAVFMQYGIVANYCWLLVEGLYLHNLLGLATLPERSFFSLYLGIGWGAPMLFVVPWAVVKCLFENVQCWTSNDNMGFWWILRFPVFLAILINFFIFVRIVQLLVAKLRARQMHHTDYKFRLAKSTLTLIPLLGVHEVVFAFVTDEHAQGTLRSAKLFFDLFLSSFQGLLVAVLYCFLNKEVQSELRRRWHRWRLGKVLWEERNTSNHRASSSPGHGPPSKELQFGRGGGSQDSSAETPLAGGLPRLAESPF

Binder	In vitro activity relative to native peptide (%), vs. Glucagon (cAMP accumulation EC50, LANCE cAMP kit, CHO cells) (human glucagon receptor)	In vitro activity relative to native peptide (%), vs. GLP-1 (cAMP accumulation EC50, LANCE cAMP kit, CHO cells) (human GLP-1 receptor)	In vitro activity relative to native peptide (%), vs. GIP (cAMP accumulation EC50, LANCE cAMP kit, CHO cells) (human GIP receptor)
B1	19%	65.3%	23.4%
B2	5.52%	42.6%	6.19%
B3	26.6%	37%	11.7%
B4	10.2%	77.6%	33.7%
B5	577%	17.4%	48.4%
B6	443%	16.6%	51.5%
B7	146%	91.4%	150%
B8	3.62%	97.8%	33.9%
B9	78.1%	89.5%	513%
B10	6.6%	87.2%	52.8%
B11	826%	49.1%	35.5%
B12	59.9%	11.2%	124%
